Measurements as given in PMC3025021, “Structural Basis of Enzymatic Activity for the Ferulic Acid Decarboxylase (FADase) from Enterobacter sp. Px6-4” (PLoS ONE, 2011).

B1: FADase (ferulic acid decarboxylase) (Enterobacter sp. Px6-4) (protein)
chain: MNTFDKHDLSGFVGKHLVYTYDNGWEYEIYVKNENTLDYRIHSGLVGNRWVKDQQAYIVRVGESIYKISWTEPTGTDVSLIVNLGDSLFHGTIFFPRWVMNNPEKTVCFQNDHIPLMNSYRDAGPAYPTEVIDEFATITFVRDCGANNESVIACAASELPKNFPDNLK
notes: full-length Met1-Lys168, pET-28a(+) EcoRI/HindIII, Ni-NTA purified, E. coli BL21(DE3); 23 kDa subunit, homodimer (44 kDa)

What was measured:
COc1cc(/C=C/C(=O)O)ccc1O = tested on: T1, COc1cc(/C=C/C(=O)O)ccc1O; experiment: HPLC decarboxylation assay; type: biochemical, Enterobacter sp. Px6-4; settings: 50 mM sodium phosphate pH 4.0, 28 °C (standard activity assay)
T1 construct: full-length Met1-Lys168, pET-28a(+) EcoRI/HindIII, Ni-NTA purified, E. coli BL21(DE3); 23 kDa subunit, homodimer (44 kDa)
Description: (§1) HPLC decarboxylation assay on FADase (ferulic acid decarboxylase)

[1] = target: Ferulic acid decarboxylase (FADase) from Enterobacter sp. Px6-4 (Enterobacter sp. Px6-4); experiment: SEC; gel-filtration / size exclusion chromatography of recombinant FADase; data not shown
[2] = target: Ferulic acid decarboxylase (FADase) from Enterobacter sp. Px6-4 (Enterobacter sp. Px6-4); experiment: cross-linking; cross-linking of FADase with ethylene glycolbis (EGS), read on a gel
[3] = target: T2, FADase (ferulic acid decarboxylase) (Enterobacter sp. Px6-4, UniProt C6F3U5); experiment: X-ray crystal structure, soaking, […] Å; type: binding; settings: crystals soaked overnight with 7 mM sodium ferulate; active site of monomer A
T2 construct: full-length Met1-Lys168, pET-28a(+) EcoRI/HindIII, Ni-NTA purified, E. coli BL21(DE3); 23 kDa subunit, homodimer (44 kDa)
T2 sequence (C6F3U5 1-168): B1 chain

[4] = substrate: COc1cc(/C=C/C(=O)O)ccc1O; experiment: HPLC decarboxylation assay; type: biochemical, Enterobacter sp. Px6-4; settings: 50 mM sodium phosphate pH 4.0, 28 °C (standard activity assay)
Description: as §1

Row | Molecule | Km (COc1cc(/C=C/C(=O)O)ccc1O) | Vmax (COc1cc(/C=C/C(=O)O)ccc1O) | kcat (COc1cc(/C=C/C(=O)O)ccc1O) | kcat/Km (COc1cc(/C=C/C(=O)O)ccc1O) | other results
1 | FADase (ferulic acid decarboxylase) (Enterobacter sp. Px6-4; E134A) | 3520 µM | 285 µM/min | 0.995 s⁻¹ | 280 M⁻¹ s⁻¹ | –
2 | FADase (ferulic acid decarboxylase) (Enterobacter sp. Px6-4; W25A) | 730 µM | 39.6 µM/min | 0.02 s⁻¹ | 20 M⁻¹ s⁻¹ | –
3 | Ferulic acid decarboxylase (FADase) from Enterobacter sp. Px6-4 (enzyme) | – | – | – | – | stoichiometry N [1]: 2; stoichiometry N [2]: 2
4 | COc1cc(/C=C/C(=O)O)ccc1O [sodium ferulate] | – | – | – | – | X-ray crystal structure, soaking, 2.1 Å [3]: The crystal structure of FADase in complex with the substrate analog sodium ferulate
5 | B1 | – | – | – | – | Km [4]: 2360 µM; Vmax [4]: 606 µM/min; kcat [4]: 2.15 s⁻¹; kcat/Km [4]: 910 M⁻¹ s⁻¹
